# According to patent publication US20060280745A1 (MEDICAL RESEARCH COUNCIL, published 2006):
# Target: T1, murine PrP^c (mouse, UniProt P04925 23-230)
# T1 construct: also called mouse PrP^c; normal cellular prion protein
# Test: immunoblot of whole spleen homogenate (FIG. 5)
# T1 sequence (P04925 23-230 limits assumed): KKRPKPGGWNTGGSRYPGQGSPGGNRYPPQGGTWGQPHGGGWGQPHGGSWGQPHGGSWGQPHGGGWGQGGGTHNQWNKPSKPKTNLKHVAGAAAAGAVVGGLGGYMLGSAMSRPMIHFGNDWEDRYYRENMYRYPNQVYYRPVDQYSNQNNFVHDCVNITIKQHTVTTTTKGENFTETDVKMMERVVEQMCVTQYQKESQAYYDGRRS
binder,measurement,value
"ICSM 18 (antibody, V domains shown, also called biotinylated ICSM 18) VH: EVQLQQSGPELVKPGSSVKISCKASRNTFTDYNLDWVKQSHGKTLEWIGNVYPNNGVTGYNQKFRGKATLTVDKSSSTAYMELHSLTSEDSAVYYCALYYYDVSYWGQGTLVTVSA VL: QIVLTQSPAIMSASPGEKVTMTCSASSSVSYMHWYQQKSGTSPKRWIYDTSKLASGVPARFSGSGSGTSYSLTISSMEAEDAATYFCHQWRSNPYTFGGGTKLEIKR",binding result,binds
